# Measurements from patent US6361968 (US Dept. of Health and Human Services, dated 1997).
# Read-outs that look alike come from different tables or passages of the source.
# T1: CREB (unmodified) (UniProt P16220 254-327)
# T1 construct: also called CREB protein
# T1 sequence (looked up): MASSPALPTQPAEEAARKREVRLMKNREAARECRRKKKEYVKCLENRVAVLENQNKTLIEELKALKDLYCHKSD
# B1: C/EBP bZIP domain (GCN4-C/EBP chimeric protein) (other)
# chain: SEYQPSLFALNPMGFSPLDGSKSTNENVSASTSTAKPMVGQLIFDKFIKTEEDPGKAKKSVDKNSNEYRVRRERNNIAVRKSRDKAKQRNVETQQKVLELTSDNDRLRKRVEQLSRELDTLRGIFRQLPESSLVKAMGNCA
# notes: Made in E. coli; forms a homodimer; also called C/EBP-C/EBP; wild type C/EBP
# B2: VBP-C/EBP chimeric protein (other)
# chain: ASMTGGQQMGRDPLEEKVFVPDEQKDEKYWTRRKKNNVAAKRSRDARRLKENQTQQKVLELTSDNDRLRKRVEQLSRELDTLRGIFRQLPESSLVKAMGNCA
# B3: 2heptad-F (designed binder)
# chain: ASMTGGQQMGRDPGGGLEKEAEELEQENAELEQEVLELESRNDRLRKEVEQLERELDTLRGIFRQLPESSLVKAMGNCA
# B4: 3heptad-F with the DP-D N-terminal cap (designed binder)
# chain: ASMTGGQQMGRDPDLARENEELEKEAEELEQENAELEQEVLELESRNDRLRKEVEQLERELDTLRGIFRQLPESSLVKAMGNCA
# notes: Built from the statement that DP-D replaces DP-GGG; also called DP-D cap; DPD cap
# B5: c-Fos (unmodified) (other)
# chain: PDKVEQLSPEEEEKRRIRRERNKMAAAKCRNRRRELTDTLQAETDQLEDEKSALQTEIANLLKEKEKLEFILAAHRPACKIP
# notes: also called human c-Fos protein
# B6: 1heptad-F (designed binder)
# chain: ASMTGGQQMGRDPGGGLEQENAELEQEVLELESRNDRLRKEVEQLERELDTLRGIFRQLPESSLVKAMGNCA
# B7: c-Jun (unmodified) (other, UniProt P05412 241-331, looked up)
# chain: PLSPIDMESQERIKAERKRMRNRIAASKCRKRKLERIARLEEKVKTLKAQNSELASTANMLREQVAQLKQKVMNHVNSGCQLMLTQQLQTF
# B8: 3heptad-F with the DP- N-terminal cap (designed binder)
# chain: ASMTGGQQMGRDPLARENEELEKEAEELEQENAELEQEVLELESRNDRLRKEVEQLERELDTLRGIFRQLPESSLVKAMGNCA
# notes: Built from the statement that DP- replaces DP-GGG; also called DP- cap
# B9: 0heptad-F (F zipper with the basic region deleted) (designed binder)
# chain: ASMTGGQQMGRDPGGGTQQEVLELESRNDRLRKEVEQLERELDTLRGIFRQLPESSLVKAMGNCA
# notes: Made in E. coli; the initiator methionine is processed off; also called heterodimerizing zipper; 0heptad-F (H)
# B10: New4hepCREB (CREB with the new 4heptad extension, asparagine changed to leucine) (designed binder)
# chain: MDYKDDDDKHMASMTGGQQMGRDPDLEQRAEELARENEELEKEAEELEQELAELENRVAVLENQNKTLIEELKALKDLYCHKSD
# notes: also called New4heptadCREB; CMV500-4heptadCREB
# B11: 4heptad-F (designed binder)
# chain: ASMTGGQQMGRDPGGGLEQRAEELARENEELEKEAEELEQENAELEQEVLELESRNDRLRKEVEQLERELDTLRGIFRQLPESSLVKAMGNCA
# notes: also called 4heptad-F zipper protein
# B12: 4heptadCREB (CREB with the 4heptad acidic extension appended at the amino terminus) (designed binder)
# chain: ASMTGGQQMGRDPDLEQRAEELARENEELEKEAEELEQENAELENRVAVLENQNKTLIEELKALKDLYCHKSD
# notes: also called 4hep-CREB
# B13: new4heptadFos (4heptadFos with one asparagine of the acidic region changed to leucine) (designed binder)
# chain: ASMTGGQQMGRDPDLEQRAEELARENEELEKEAEELEQELAELEAETDQLEDEKSALQTEIANLLKEKEKLEFILAAHRPACKIP
# notes: also called N4heptad-Fos
# B14: GBF-C/EBP chimeric protein (other)
# chain: PVKDERELKRQKRKQSNRESARRSRLRNEAECEQTQQKVLELTSDNDRLRKRVEQLSRELDTLRGIFRQLPESSLVKAMGNCA
# B15: 3heptad-C/EBP (three heptad acidic extension appended onto the C/EBP leucine zipper) (designed binder)
# chain: ASMTGGQQMGRDPGGGLARENEELEKEAEELEQENAELEQKVLELTSDNDRLRKRVEQLSRELDTLRGIFRQLPESSLVKAMGNCA
# B16: 0heptadMax (dimerization domain of Max without an acidic extension) (designed binder)
# chain: ASMTGGQQMGRDPDLEELEDSFHSLRDSVPSLQGEKASRAQILDKATEYIQYMRRKNHTHQQDIDDLKRQNALLEQQVRALEKARSSAQLQT
# notes: domain: dimerization domain; also called OheptadMax
# B17: AcidMax (Max with a polyglutamic acid extension) (designed binder)
# chain: MASMTGGQQMGRDPDEEEDDEEELEELEDSFHSLRDSVPSLQGEKASRAQILDKATEYIQYMRRKNHTHQQDIDDLKRQNALLEQQVRALEKARSSAQLQT
# Columns and labels:
# [1] = molecular target: the molecule itself; assay: CD thermal melt, homodimer, 150 mM KCl, Kd at 25 C
# Description: (§1) CD analyses were performed as described in Materials and Methods of D. Krylov et al., 1994, *EMBO J.,* 13:2849–2861. T_m values were calculated as described in D, Krylov et al., 1994, Ibid, converted to K_{d(25)} and $\Delta G(25)$ using a $\Delta C_p$ of –0.96 kcal/mol° C.^-1 calculated from a T_m versus $\Delta H$ plot for all of the proteins as described herein. All thermal melts were reversible.
# (§2) Table 1 presents the melting temperature (T_m,° C.), $\Delta G$ and k_d at 25° C. for CD thermal melts of a variety of proteins either as homodimers or an equimolar mixture of two proteins. […] The (L) denotes 'low' salt conditions (50 mM KCl, 25 mM Tris pH 8.0, 0.5 mM EDTA, 1 mM DTT) and the (H) denotes regular salt conditions (12.5 mM potassium phosphate, pH 7.4, 150 mM KCl, 0.25 mM EDTA, and 0.5 mM DTT). The latter conditions were used in Table 2. "0heptad-F" represents the F zipper with the basic region deleted. The RMS error in $\Delta G$ is 0.2 kcal/mol and 0.5 kcal/mol for homo- and heterodimers respectively.
# [2] = molecular target: the molecule itself; assay: CD thermal melt, homodimer, low salt (50 mM KCl), Kd at 25 C
# Description: as §1, §2
# [3] = molecular target: the molecule itself; assay: CD thermal melt, homodimer, 150 mM KCl, Kd at 25 C; remark: listed apart in the source
# Description: as §1, §2
# [4] = molecular target: the molecule itself; assay: CD thermal melt, homodimer, 150 mM KCl
# Description: as §1, §2
# [5] = molecular target: B2; assay: CD thermal melt, equimolar mixture, 150 mM KCl
# Description: as §2
# (§3) The two chimeras were mixed with the four different length acidic extensions appended to the F zipper and their stability was determined from CD thermal melts.
# [6] = molecular target: B14; assay: CD thermal melt, equimolar mixture, 150 mM KCl
# Description: as §2, §3
# [7] = molecular target: B1; assay: CD thermal melt, equimolar mixture, 150 mM KCl
# Description: as §2, §3
# [8] = molecular target: B2; assay: CD thermal melt, equimolar mixture, 150 mM KCl, Kd at 25 C
# Description: as §2, §3
# [9] = molecular target: B14; assay: as above
# Description: as §2, §3
# [10] = molecular target: B1; assay: as above
# Description: as §2, §3
# [11] = molecular target: B1; assay: thermal stability as heterodimers with C/EBP
# c-Jun (unmodified) [12] = molecular target: B7; assay: thermal melt of the mixture (FIG. 4)
# c-Jun (unmodified) [13] = molecular target: B7; assay: from thermal melts of FIG. 4, Kd at 37 C
# [14] = molecular target: B2; assay: CD thermal melts
# [15] = molecular target: B14; assay: CD thermal melts
# [16] = molecular target: B1; assay: CD thermal melts
# [17] = molecular target: the molecule itself; assay: from thermal melts of FIG. 4, Kd at 37 C
# [18] = molecular target: B1; assay: CD thermal melt, equimolar mixture, 150 mM KCl, Kd at 25 C
# Description: as §1, §2
# [19] = molecular target: B1; assay: CD thermal melt, equimolar mixture, 150 mM KCl
# Description: as §1, §2
# CREB (unmodified) [20] = molecular target: T1, CREB (unmodified); assay: thermal melt of the mixture (FIG. 3)
# [21] = molecular target: B2; assay: thermal melt of the mixture (FIG. 1)
# [22] = molecular target: B14; assay: thermal melt of the mixture (FIG. 1)
# [23] = molecular target: B1; assay: thermal melt of the mixture (FIG. 1)
# CREB (unmodified) [24] = molecular target: T1, CREB (unmodified); assay: thermal melt, CREB with 4heptadCREB (FIG. 3)
# [25] = molecular target: the molecule itself; assay: homodimer, dimerization study of FIG. 9
# c-Myc bHLH protein = c-Myc bHLH protein (murine, UniProt P01108 368-454); assay: heterodimer with c-Myc, dimerization study of FIG. 9
# Chain of c-Myc bHLH protein (P01108 368-454 limits assumed, form in doubt): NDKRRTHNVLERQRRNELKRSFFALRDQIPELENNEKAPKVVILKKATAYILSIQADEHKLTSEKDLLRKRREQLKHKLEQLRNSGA
binder,measurement,setting,value
B1,Kd,[1],10 nM
same,Kd,[2],30 nM
same,Kd,[3],10 nM
same,deltaG at 25 C,[4],-10.9 kcal/mol
B2,Kd,[3],8 nM
same,deltaG at 25 C,[4],-11.1 kcal/mol
B3,Tm,[5],62.8 °C
same,deltaG at 25 C,[5],-13.8 kcal/mol
same,Tm,[6],63.1 °C
same,deltaG at 25 C,[6],-13.6 kcal/mol
same,Tm,[7],63.6 °C
same,deltaG at 25 C,[7],-13.9 kcal/mol
same,Kd,[8],0.09 nM
same,Kd,[9],0.1 nM
same,Kd,[10],0.07 nM
same,Kd,[3],4000 nM
same,deltaG at 25 C,[4],-7.4 kcal/mol
B4,fold stability against the DP-GGG cap,[11],3 fold
B5,Tm,c-Jun (unmodified) [12],50 °C
same,Kd,c-Jun (unmodified) [13],200 nM
B6,Tm,[5],60.5 °C
same,deltaG at 25 C,[5],-13.1 kcal/mol
same,Tm,[6],62 °C
same,deltaG at 25 C,[6],-13.2 kcal/mol
same,Tm,[7],60.8 °C
same,deltaG at 25 C,[7],-13.5 kcal/mol
same,Kd,[8],0.3 nM
same,Kd,[9],0.2 nM
same,Kd,[10],0.1 nM
same,Kd,[3],1000 nM
same,deltaG at 25 C,[4],-8 kcal/mol
same,stabilization against 0heptad-F,[14],0.9 kcal/mol
same,stabilization against 0heptad-F,[15],1.3 kcal/mol
same,stabilization against 0heptad-F,[16],1.7 kcal/mol
B7,Kd,[17],20000 nM
B8,fold stability against the DP-GGG cap,[11],3 fold
B9,Tm,[5],55.1 °C
same,deltaG at 25 C,[5],-12.2 kcal/mol
same,Tm,[6],55.7 °C
same,deltaG at 25 C,[6],-11.9 kcal/mol
same,Tm,[7],55.4 °C
same,deltaG at 25 C,[7],-11.8 kcal/mol
same,Kd,[1],2000 nM
same,Kd,[8],1 nM
same,Kd,[9],2 nM
same,Kd,[10],3 nM
same,Kd,[18],3 nM
same,Kd,[3],1000 nM
same,deltaG at 25 C,[4],-8 kcal/mol
same,Tm,[19],55.4 °C
B10,Tm,CREB (unmodified) [20],69.5 °C
B11,Tm,[5],65.2 °C
same,deltaG at 25 C,[5],-14.8 kcal/mol
same,Tm,[6],65 °C
same,deltaG at 25 C,[6],-14.5 kcal/mol
same,Tm,[7],64.8 °C
same,deltaG at 25 C,[7],-14.2 kcal/mol
same,melting temperature (given as ellipticity),[21],65 °C
same,melting temperature (given as ellipticity),[22],65 °C
same,melting temperature (given as ellipticity),[23],65 °C
same,Kd,[8],0.01 nM
same,Kd,[9],0.03 nM
same,Kd,[10],0.04 nM
same,Kd,[3],20000 nM
same,deltaG at 25 C,[4],-6.3 kcal/mol
B12,Tm,CREB (unmodified) [24],53 °C
B13,Tm,c-Jun (unmodified) [12],72 °C
B14,Kd,[3],20 nM
same,deltaG at 25 C,[4],-10.6 kcal/mol
B15,Tm,[7],61 °C
same,deltaG at 25 C,[7],-12.6 kcal/mol
same,Kd,[10],0.6 nM
B16,Kd,[25],100 nM
B17,Kd,c-Myc bHLH protein,0.002 nM
same,Kd,[25],30 nM
